This note sets out measurements from US20230365679A1 (KUNMING SINOWAY NATURAL PHARMACEUTICALS, published 2023).

Experiment [1] addresses CD22 on the cell membrane of CD22-positive cell lines (Raji, REH, CA46) (UniProt P20273). Briefly: FACS on REH cells; ambiguous fit, Top printed as (very wide).
Experiment [2] shares this target. The experiment in a line: FACS on CA46 cells; ambiguous fit, Top printed as (very wide).
The target in experiment [3] is Biotinylated Human Siglec-2/CD22 Protein, Fc, Avitag (ACROBiosystems, SI2-H82F8) (human) (UniProt P20273). Briefly: ELISA, plate coated with CD22-Fc antigen; fit of a non-binding control (R2 0.1733), not meaningful.
In experiment [4] the target is CD22 on the cell membrane of CD22-positive cell lines (Raji, REH, CA46) (UniProt P20273). Briefly: FACS on Raji cells.
In experiment [5] the target is T1, Biotinylated Human Siglec-2/CD22 Protein, Fc, Avitag (ACROBiosystems, SI2-H82F8) (human, UniProt P20273 20-687, biotinylated (Avitag)).
T1 construct: Bought reagent; also called CD22 antigen; CD22-Fc-biotinylated antigen; not shown: Fc tag of the bought protein; Avitag
Briefly: SPR (Biacore 8K), CD22-Fc-biotin on SA chip, antibody as analyte, 1:1 binding model. The protocol:
Following reagents and materials were mainly used: [0066] Antigen to be immobilized: CD22-Fc-biotinylated antigen: ACROBiosystems (ARCO)) SI2-H82F8; [0067] Antibodies to be tested: Anti-CD22 mAbs; [0068] Chip SA; [0069] Immobilization buffer: (1) 1 M NaCl/50 mM NaOH; [0070] (2) 1 M NaCl/50 mM NaOH/50% isopropanol; [0071] Running buffer: 1×HBS-EP buffer; [0072] Regeneration buffer: Glycine, pH 1.5.
Experimental steps were as follows: [0074] 1) A sensor chip SA was taken and its surface was cleaned with ultrapure water; and after dried under nitrogen, was inserted into the slot. The immobilization buffers (1) and (2) were added to the columns A1 and A2 in a 96 well plate, and 3.85 nM CD22-Fc-biotinylated antigen were added at 200 μL per well into corresponding wells in column A3, respectively. The program was set to immobilize the antigen, and the immobilization was stopped when delta RU of about 70 RU was achieved. [0075] 2) Program “binding test” was set, including association time of 250 s and dissociation time of 600 s, and a test was performed using HA22 mAb, a dissociation degree of 4-5% was shown. [0076] 3) The HA22 mAb was diluted to 1000 nM and subsequently to 100 nM, and further 2-fold diluted starting from 100 nM for 8 times, at a final volume of about 250 μL per well. The program was set up to detect the binding capacity of that antibody No. 1 to the antigen, with association time of 250 s and dissociation time of 600 s. […] [0077] 4) All the antibodies, i.e., mAb-1 to mAb-6, were diluted to 1000 nM and subsequently to 100 nM, and further 2-fold diluted starting from 100 nM for 8 times, at a final volume of about 250 μL per well. The same program as that in step 3 was set up to detect affinity in batches. Results were analyzed using Biacore 8K evaluation.

For experiment [6], the target named is T2, CD22 on the cell membrane of CD22-positive cell lines (Raji, REH, CA46) (UniProt P20273 20-847, limits assumed).
T2 construct: whole, on cells; Raji and CA46: relatively high expression of CD22; REH: relatively medium expression; also called CD22 on cell membrane
The experiment in a line: FACS on Raji cells. The protocol: (§1) Raji cells (having a relatively high expression of CD22), CA46 cells (having a relatively high expression of CD22), and REH cells (having a relatively medium expression of CD22) were selected, and the cell binding ability of the antibodies was evaluated by curves of mean fluorescence intensity versus concentration obtained through FACS.

Experiment [7] concerns the target T2, CD22 on the cell membrane of …. Briefly: FACS on REH cells. The protocol: as §1
Experiment [8] shares this target. The experiment in a line: FACS on CA46 cells. The procedure:
as §1

In experiment [9] the target is T1, Biotinylated Human Siglec-2/CD22 …. Briefly: ELISA, plate coated with CD22-Fc antigen, anti-human Fd-HRP. The protocol: ELISA plates were coated with 200 ng/mL CD22 antigen (Biotinylated Human Siglec-2/CD22 Protein, Fc, Avitag™, ACROBiosystems (ARCO)) at 100 μl per well, at 4° C. overnight. Next day, the plates were washed with PBST, then blocked by the added blocking buffer (PBST+3% milk) at 37° C. for 1-2 hours, and then washed again with PBST.
After incubation, the plates were washed with PBST. 100 μl of 1:10000 diluted secondary antibody (Mouse anti-human IgG Fd secondary antibody, HRP; REF: SA5-10190, Invitrogen, USA) was added to each well of the ELISA plates which were then incubated at 37° C. for 1 hour. Thereafter, the plates were washed with PBST.
100 μl of TMB solution (TMB Single-Component Substrate solution, Cat #PR1200, Beijing Solarbio Science & Technology Co., Ltd.) was added to each well of the plates which were then incubated at room temperature for 15 minutes. Then 50 μl of stop buffer (ELISA stop buffer (10×), Cat #C1058, Beijing Solarbio Science & Technology Co., Ltd.) was added thereto, and the plates were shaken. Absorbance values at 450 nm were detected.

Experiment [10] deals with T2, CD22 on the cell membrane of …. Briefly: FACS on CA46 cells; ambiguous fit, Top printed as (very wide). The procedure:
as §1

For the molecule Isotype control (antibody), the EC50 in experiment [1] came to 8250 µg/mL; in [2], 4590 µg/mL; in experiment [3] it was 0.000154 µg/mL; in [4] it was 32.6 µg/mL.

B1: HA22 mAb (antibody, human IgG1, kappa, V domains shown)
VH: EVQLVESGGGLVKPGGSLKLSCAASGFAFSIYDMSWVRQTPEKCLEWVAYISSGGGTTYYPDTVKGRFTISRDNAKNTLYLQMSSLKSEDTAMYYCARHSGYGTHWGVLFAYWGQGTLVTVSA
VL: DIQMTQTTSSLSASLGDRVTISCRASQDISNYLNWYQQKPDGTVKLLIYYTSILHSGVPSRFSGSGSGTDYSLTISNLEQEDFATYFCQQGNTLPWTFGCGTKLEIKR
notes: also called positive antibody HA22 mAb
As for B1, binding in experiment [5] was put at a Kd of 0.242 nM. In experiment [5], the koff was determined as 8.93e-05 s⁻¹. This molecule came in with a kon in experiment [5] of 370000 M⁻¹ s⁻¹. Besides, the EC50 in experiment [6] was 0.152 µg/mL; in experiment [7], 0.172 µg/mL; in [8] it was 0.221 µg/mL; in [9] it was 0.0203 µg/mL.

B2: mAb-3 (antibody, human IgG1, kappa, V domains shown)
VH: EVQLVESGGGLVKPGGSLRLSCAASGFAFSIYDMSWVRQAPGKCLEWVAYISSGGGTTYYPDSVKGRFTISRENAKNSLYLQMNSLKSEDTAMYYCARHSGYGTHWGVLFAYWGQGTMVTVSS
VL: DIQMTQSTSTLSASVGDRVTITCRASQDISNYLNWYQQRPDGSVKLLIYYTSILHSGVPSRFSGSGSGTDYTLTISSLQDEDFATYFCQQGNTLPWTFGCGTKVEIKR
notes: Humanized IgG1/kappa antibody; also called V1 HC + V2 LC
In experiment [5], B2 gave a Kd of 0.713 nM, an off-rate (koff) of 0.000404 s⁻¹ and a kon of 567000 M⁻¹ s⁻¹. Also, in experiment [8], the EC50 was 1.61 µg/mL. Besides, in experiment [9], a half-maximal effect (EC50) was put at 0.0139 µg/mL.

B3: mAb-1 (antibody, human IgG1, kappa, V domains shown)
VH: EVQLVESGGGLVKPGGSLRLSCAASGFAFSIYDMSWVRQTPEKCLEWVAYISSGGGTTYYPDSVKGRFTISRENAKNSLYLQMNSLKSEDTAMYYCARHSGYGTHWGVLFAYWGQGTMVTVSS
VL: DIQMTQTTSSLSASLGDRVTISCRASQDISNYLNWYQQKPDGTVKLLIYYTSILHSGVPSRFSGSGSGTDYSLTISNLEQEDFATYFCQQGNTLPWTFGCGTKLEIKR
notes: Reconstructed IgG1/kappa antibody, humanized heavy chain with HA22 light chain; also called V2 HC + HA22 LC
In experiment [5], B3 had a Kd of 0.604 nM. The molecule further registered a koff in experiment [5] of 0.000262 s⁻¹. Moreover, the kon in [5] is 434000 M⁻¹ s⁻¹. The concentration giving a half-maximal response (EC50) in [6] amounted to 0.152 µg/mL; in experiment [7], 0.812 µg/mL; in experiment [8], 0.521 µg/mL; in experiment [9], 0.0154 µg/mL.

B4: mAb-2 (antibody, human IgG1, kappa, V domains shown)
VH: EVQLVESGGGLVKPGGSLRLSCAASGFAFSIYDMSWVRQTPEKCLEWVAYISSGGGTTYYPDSVKGRFTISRENAKNSLYLQMNSLKSEDTAMYYCARHSGYGTHWGVLFAYWGQGTMVTVSS
VL: DIQMTQSTSTLSASVGDRVTITCRASQDISNYLNWYQQRPDGSVKLLIYYTSILHSGVPSRFSGSGSGTDYTLTISSLQDEDFATYFCQQGNTLPWTFGCGTKVEIKR
notes: Humanized IgG1/kappa antibody; also called V2 HC + V2 LC
On to B4, for which, in experiment [5], the Kd amounted to 0.47 nM, the koff was 0.000177 s⁻¹ and the kon worked out at 376000 M⁻¹ s⁻¹. Moreover, the EC50 in experiment [6] came out at 0.276 µg/mL. The EC50 in experiment [8] was determined as 0.23 µg/mL. Besides, the EC50 in experiment [9] was determined as 0.00906 µg/mL.

B5: mAb-5 (antibody, human IgG1, kappa, V domains shown)
VH: EVQLVESGGGLVKPGGSLRLSCAASGFAFSIYDMSWIRQAPGKCLEWVAYISSGGGTTYYPGSVKGRFTISRENAKNSLYLQMNSLRSEDTAVYYCARHSGYGTHWGVLFAYWGQGTMVTVSS
VL: DIQMTQSPSTLSASVGDRVTITCRASQDISNYLNWFQQRPGQSPRLLIYYTSILHSGVPSRFSGSGSGTDYTLTISSLQPEDFATYYCQQGNTLPWTFGCGTKVEIKR
notes: Humanized IgG1/kappa antibody; also called V5 HC + V4 LC
In experiment [10], B5 displayed an EC50 of around 20200 µg/mL. In [5], this molecule displayed a Kd of 0.382 nM, a koff of 0.000411 s⁻¹ and an on-rate (kon) of 1.08e+06 M⁻¹ s⁻¹. In experiment [9], a half-maximal effect (EC50) was put at 0.0163 µg/mL.

B6: mAb-4 (antibody, human IgG1, kappa, V domains shown)
VH: EVQLVESGGGLVKPGGSLRLSCAASGFAFSIYDMSWVRQAPGKCLEWVAYISSGGGTTYYPDSVKGRFTISRENAKNSLYLQMNSLKSEDTAMYYCARHSGYGTHWGVLFAYWGQGTMVTVSS
VL: DIQMTQSPSTLSASVGDRVTITCRASQDISNYLNWFQQRPGQSPRLLIYYTSILHSGVPSRFSGSGSGTDYTLTISSLQPEDFATYYCQQGNTLPWTFGCGTKVEIKR
notes: Humanized IgG1/kappa antibody; also called V1 HC + V4 LC
B6 displayed a Kd in experiment [5] of 0.145 nM. The molecule further had a koff in [5] of 9.91e-05 s⁻¹. In addition, the kon in experiment [5] came out at 685000 M⁻¹ s⁻¹. Moreover, the EC50 in [6] turned out to be 0.206 µg/mL; in [8], 0.152 µg/mL; in experiment [9], 0.0139 µg/mL.

B7: mAb-6 (antibody, human IgG1, kappa, V domains shown)
VH: EVQLVESGGGLVKPGGSLRLSCAASGFAFSIYDMSWIRQAPGKCLEWVAYISSGGGTTYYPGSVKGRFTISRENAKNSLYLQMNSLRAGDTAVYYCARHSGYGTHWGVLFAYWGQGTMVTVSS
VL: DIQMTQSPSTLSASVGDRVTITCRASQDISNYLNWFQQRPGQSPRLLIYYTSILHSGVPSRFSGSGSGTDYTLTISSLQPEDFATYYCQQGNTLPWTFGCGTKVEIKR
notes: Humanized IgG1/kappa antibody; also called V4 HC + V4 LC
Regarding B7, in experiment [5], binding was put at a Kd of 0.315 nM, the koff stood at 0.00022 s⁻¹ and the kon turned out to be 699000 M⁻¹ s⁻¹. In [8], this molecule returned an EC50 of 2.75 µg/mL. Moreover, the EC50 in [9] stood at 0.0104 µg/mL.
